Source: paper PMC8091128

Target: T1, α-catenin (cleaved from GST–α-catenin), P35221
T1 chain: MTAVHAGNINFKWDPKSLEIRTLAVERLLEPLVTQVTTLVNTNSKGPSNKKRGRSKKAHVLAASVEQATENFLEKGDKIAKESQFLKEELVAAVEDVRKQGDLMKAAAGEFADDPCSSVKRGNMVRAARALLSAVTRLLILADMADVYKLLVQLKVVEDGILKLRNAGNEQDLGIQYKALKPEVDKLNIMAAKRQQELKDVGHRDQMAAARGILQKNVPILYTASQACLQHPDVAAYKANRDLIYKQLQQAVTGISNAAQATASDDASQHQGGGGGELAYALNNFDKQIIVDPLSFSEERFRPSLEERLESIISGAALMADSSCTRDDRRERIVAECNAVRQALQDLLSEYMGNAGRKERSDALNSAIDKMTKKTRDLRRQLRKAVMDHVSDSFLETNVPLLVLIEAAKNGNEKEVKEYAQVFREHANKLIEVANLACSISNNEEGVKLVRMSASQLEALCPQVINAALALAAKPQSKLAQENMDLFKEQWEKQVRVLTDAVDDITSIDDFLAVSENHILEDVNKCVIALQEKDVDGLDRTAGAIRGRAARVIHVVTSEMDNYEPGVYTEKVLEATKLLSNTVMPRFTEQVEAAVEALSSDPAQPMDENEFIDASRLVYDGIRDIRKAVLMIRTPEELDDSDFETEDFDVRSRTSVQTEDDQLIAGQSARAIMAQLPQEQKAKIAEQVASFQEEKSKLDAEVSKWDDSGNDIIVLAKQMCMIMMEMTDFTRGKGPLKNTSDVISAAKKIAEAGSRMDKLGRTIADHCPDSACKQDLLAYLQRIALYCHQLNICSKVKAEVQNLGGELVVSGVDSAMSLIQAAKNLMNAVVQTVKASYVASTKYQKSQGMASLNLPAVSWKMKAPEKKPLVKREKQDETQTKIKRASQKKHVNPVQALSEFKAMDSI
Assay: GST pull-down (in vitro reconstitution of cadherin complex), blot quantification
Settings: chain shown with the change;; parent: est. 1.0; read off a plot

ratio to parent: 1.1 fold change
B1: GST–β-catenin WT, P35222 S675D (protein)
chain: MATQADLMELDMAMEPDRKAAVSHWQQQSYLDSGIHSGATTTAPSLSGKGNPEEEDVDTSQVLYEWEQGFSQSFTQEQVADIDGQYAMTRAQRVRAAMFPETLDEGMQIPSTQFDAAHPTNVQRLAEPSQMLKHAVVNLINYQDDAELATRAIPELTKLLNDEDQVVVNKAAVMVHQLSKKEASRHAIMRSPQMVSAIVRTMQNTNDVETARCTAGTLHNLSHHREGLLAIFKSGGIPALVKMLGSPVDSVLFYAITTLHNLLLHQEGAKMAVRLAGGLQKMVALLNKTNVKFLAITTDCLQILAYGNQESKLIILASGGPQALVNIMRTYTYEKLLWTTSRVLKVLSVCSSNKPAIVEAGGMQALGLHLTDPSQRLVQNCLWTLRNLSDAATKQEGMEGLLGTLVQLLGSDDINVVTCAAGILSNLTCNNYKNKMMVCQVGGIEALVRTVLRAGDREDITEPAICALRHLTSRHQEAEMAQNAVRLHYGLPVVVKLLHPPSHWPLIKATVGLIRNLALCPANHAPLREQGAIPRLVQLLVRAHQDTQRRTSMGGTQQQFVEGVRMEEIVEGCTGALHILARDVHNRIVIRGLNTIPLFVQLLYSPIENIQRVAAGVLCELAQDKEAAEAIEAEGATAPLTELLHSRNEGVATYAAAVLFRMSEDKPQDYKKRLDVELTSSLFRTEPMAWNETADLGLDIGAQGEPLGYRQDDPSYRSFHSGGYGQDALGMDPMMEHEMGGHHPGADYPVDGLPDLGHAQDLMDGLPPGDSNQLAWFDTDL
